This passage reports percent of nucleosomes bound results from paper PMC10635376, “New insights into the mechanism and DNA-sequence specificity of INO80 chromatin remodeling” (Research Square, 2023).

This test concerns the target Recombinant Xenopus laevis histone octamer reconstituted into 70N5 mononucleosomes (Xenopus laevis). The experiment in a line: native gel or EMSA; 70N5 601 nucleosomes with photo-reactive DNA bound with saturating INO80 at 30 C for 30 min; extent of binding on 4% native polyacrylamide gels.

On to “Native wild-type Saccharomyces cerevisiae INO80 complex (from UniProt P53115 1-1489; P53946 1-755; P32617 1-166; P40154 1-320; Q12386 1-881; P80428 1-489; P60010 1-375)”, for which the percent of nucleosomes bound is above 90%.
